Measured values reported in PMC5701637, “Identification and Analysis of Novel Inhibitors against NS3 Helicase and NS5B RNA-Dependent RNA Polymerase from Hepatitis C Virus 1b (Con1)”.

Target: NS3 helicase (NS3h) (Hepatitis C virus genotype 1b (Con1), UniProt Q9WMX2 1193-1660)
Experiment: fluorescence polarization; 5 nM DNA, 15 nM NS3h, 1.25 mM MgCl2; FP: 25 mM MOPS pH 7.5, 1.25 mM MgCl2, 0.0025 mg/mL BSA, 0.005% Tween 20, 0.025 mM DTT, 1% DMSO, temperature not stated; EMSA: 50 mM Tris-Cl pH 7.4, 10% glycerol, 0 C, 20 min
Conditions: protein: recombinant; tags: His tag (pET21b(+), HisTrap purified); single strand

Sequence of NS3 helicase (NS3h) (Q9WMX2 1193-1660): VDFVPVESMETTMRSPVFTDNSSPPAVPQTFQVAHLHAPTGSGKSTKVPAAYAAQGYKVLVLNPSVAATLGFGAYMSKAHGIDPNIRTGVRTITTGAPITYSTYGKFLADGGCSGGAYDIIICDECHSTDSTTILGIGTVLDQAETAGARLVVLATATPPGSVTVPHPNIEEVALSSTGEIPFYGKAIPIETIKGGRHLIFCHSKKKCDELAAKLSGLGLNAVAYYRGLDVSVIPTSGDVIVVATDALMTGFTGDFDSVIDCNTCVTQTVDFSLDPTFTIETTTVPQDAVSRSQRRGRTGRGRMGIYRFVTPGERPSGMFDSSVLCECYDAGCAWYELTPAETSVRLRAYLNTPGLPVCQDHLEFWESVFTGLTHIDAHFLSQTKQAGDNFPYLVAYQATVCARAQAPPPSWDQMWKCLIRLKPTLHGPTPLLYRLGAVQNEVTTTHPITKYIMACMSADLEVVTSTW

Binder: TTTTTTTTTTTTTTT (ssDNA) [Cy5-dT15]
- binding result: binds
